Data set [1] in a line: amyloid nucleation score (Sup35N fusion, yeast selection) (log enrichment); library NNK2; higher = more nucleation; inactive = no reads after selection. The method, boiled down:
(§1)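 After 24 hours of induction with 100 μM copper sulfate, psi-negative yeast expressing peptides of 20 random codons fused to Sup35N were grown for 7 days at 30°C on medium lacking adenine and uracil. Input and output plasmid inserts were sequenced with Illumina, and sequences with under 100 input reads were discarded. Scores for nucleation are the DiMSum log enrichment of output over input reads, centred on the mode score of non-aggregating sequences.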

The nature of data set [2]: amyloid nucleation score (Sup35N fusion, yeast selection) (log enrichment); library NNK3; higher = more nucleation; inactive = no reads after selection. In short, it runs like this: as §1

± gives the uncertainty stated by the source.

For the substance MYYLNSFGRELLSGLKCYKT, the amyloid nucleation score in data set [1] is -0.698 ± 0.5.

For the substance QNDLIWSSW, the amyloid nucleation score in data set [1] was -1.32 ± 0.49.

Substance KLAYIAMTVSITGFDPCAWD gave an amyloid nucleation score in data set [1] of 2.55 ± 0.068. On the same count and under the same terms, to KSISVSLLVEGAVVSLSAYI belongs 4.21 ± 0.11; to GQELSGNIFIPDHLGLLSCS, 0.744 ± 0.8.

For the substance YFNSSVLILVVWLLY, in data set [1], the amyloid nucleation score result is “inactive”.

The substance GAMTSMDVCL displayed an amyloid nucleation score in data set [1] of -0.062 ± 0.65. Still for that read-out and setting: under QYVSLYAVKRIVEIVQDKCA stands 0.012 ± 0.39; under VWRNRSGNITSVTFL, 5.23 ± 0.069; under PKNLILLSHFYSEAVCPGAR, -0.927 ± 1.1. Turning to WTLTGHVRNLKLQVCMSVY, the amyloid nucleation score in data set [1] amounted to 0.789 ± 0.6. Same read-out and setting: to FCCTLAIFSL belongs 7.594 ± 0.024; to PCKNIMVYNSLTDAWPCLYM, 0.093 ± 0.8; to DNSAGDLYNSSVTGSPVMQL, -0.447 ± 0.22. In data set [1], RLSFQSCCLPFVYWNWW displayed an amyloid nucleation score of 7.738 ± 0.048. Still for that read-out and setting: under YGKGDLGRCSLDTSTTLSDW stands 0.252 ± 0.65; under MRKLSKLLTWHPRHA, -0.517 ± 0.54; under GQYLLSTIIVFGCSMAGFAA, 2.52 ± 0.12. On the same count and under the same terms, to FDHHRGGNTLMQGDLLVMDF belongs 0.925 ± 0.67; to MAILVGSFDVDSNCVDSWGV, 0.027 ± 0.74; to FCRDLVSGLIMTMPLCTDEM, 0.079 ± 0.5. On the same count and under the same terms, under WAIRPSRYYITAYAVELHCD stands 9.114 ± 0.074; under FYKGYACHITAQYNLCVDNA, -0.146 ± 1. For CGRRILSRWVITLLVPGGSF, the amyloid nucleation score entry in data set [1] was “inactive”.

In data set [1], NLTMYILRNYTCIMYYIKVC gave an amyloid nucleation score of -0.208 ± 1. Consider KCGSTFPLDLLYMSY, for which the amyloid nucleation score in data set [1] is -1.16 ± 0.49. Still for that read-out and setting: under KMDRDS stands -0.125 ± 0.38. The same measure, in the same setting: under FMLVV stands “inactive”. In data set [1], DIYFGDQNDCLKR returned an amyloid nucleation score of -1.17 ± 0.64. Still for that read-out and setting: to KGGWNKGEPMFFLVMCMYVN belongs 4.8 ± 0.054; to TSSQTHSR, -0.03 ± 0.63; to IVNSNWGARRNKRAACQRES, -0.317 ± 0.79. In the case of TMFTFIAANSRWLNAKIPWY, the amyloid nucleation score in data set [1] worked out at 0.157 ± 0.25. Still for that read-out and setting: to DDMTGDHRPSFRSMIMVGVI belongs 0.918 ± 0.67; to NIRFTSLFRLCYFSCDSVSN, 5.301 ± 0.035. Still for that read-out and setting: to NDKSFSMLATE belongs 0.707 ± 0.46; to IRFKVMGFMFFVSW, 0.094 ± 0.65; to RRSTWSISLS, -0.916 ± 0.45. Still for that read-out and setting: under RAATYYQFVVLVCKQSDFKR stands 5.77 ± 0.095; under VVVRGVQAGCGKPPVSRLRI, 0.838 ± 0.23; under GYNTRKYWISGYNTTDSPGK, -1.13 ± 0.35. Regarding KLVIKLRIIYYASV, the amyloid nucleation score in data set [1] is 3.74 ± 0.084. Still for that read-out and setting: under LFEDVMRKGRWRDASGRWKH stands 3.27 ± 0.17; under RLEEDGSD, 7.125 ± 0.067; under DQIEIISLKNCTVG, “inactive”. On the same count and under the same terms, to LSWITPIKIGISFSLALIFT belongs -0.974 ± 0.49; to DSWLGRMTRDKGNASFRSAS, 1.16 ± 0.46. The same measure, in the same setting: under MHVDVV stands -0.352 ± 1. As to CTFTRLRSSAGSGIRQTPRL, the amyloid nucleation score in data set [1] was 0.048 ± 0.79.

With TTIFGNSATLDGIPHIIKRP, the amyloid nucleation score in data set [1] was -0.268 ± 0.79.

NTLEPWMKYSMCLFDKISPT: the amyloid nucleation score in data set [1] was -0.391 ± 0.49.

The substance VNRPATPFEGSQCLIIYSRV displayed an amyloid nucleation score in data set [1] of -0.613 ± 0.45. The same measure, in the same setting: under PRSQYRITYDYVCCRVMYKY stands 0.392 ± 0.46. As to KVGKDTVYKGQSIQSVYLRC, the amyloid nucleation score in data set [1] is -0.41 ± 0.49. The same measure, in the same setting: to CLIDFWKRDFKSAVDSKGTA belongs 0.125 ± 0.65; to FLACQYNCLVDSMG, 3.26 ± 0.051; to VCIRVRRDRKVMWDWSV, 1.5 ± 0.24. The same measure, in the same setting: to MRKWTVSGIRGGRN belongs 0.879 ± 0.23; to YPNLFS, 0.522 ± 0.74. Same read-out and setting: to TNGRCVELVMMYKYSLFVGD belongs 1.05 ± 0.61; to RSQIPNYYWQYMLVYSYLQG, 0.201 ± 0.74.

As for LMYTFVGCSINVCFGGSGCL, the amyloid nucleation score in data set [1] came out at 8.873 ± 0.034. Same read-out and setting: under ACSDGVAMECKV stands -0.429 ± 0.44; under DIDKGSTEGDVMEGKLVNNV, 0.171 ± 0.2.

Substance TVNLGSYSEMRFLLLQEQAS yielded an amyloid nucleation score in data set [1] of -0.747 ± 0.63.

As for TFMKGTVIT, the amyloid nucleation score in data set [1] came out at 0.759 ± 0.74. Still for that read-out and setting: under SRFIAWSFT stands -0.038 ± 1.1. In the case of DGDICLLRYFFLTMILELAI, the amyloid nucleation score in data set [1] is -2.02 ± 0.78. On the same count and under the same terms, to KDCYNHSGRTGVVTDQKAQW belongs -0.118 ± 0.41; to FIGNF, 0.636 ± 0.19; to FYVSAFMHIKVLYPVNNRLG, 3.62 ± 0.11. The same measure, in the same setting: to THWSCSSKLFGEFGWNFVWK belongs 2.89 ± 0.067; to DNSFMSLYLVRIHFTYPVAA, 3.69 ± 0.082.

In data set [1], CFDEFTLCKVLWNMFSTFLG returned an amyloid nucleation score of -0.707 ± 1.1. The same measure, in the same setting: to CNFKINRAHNELPLDDLRNF belongs “inactive”; to QVLISFG, -2.41 ± 1.1; to RKTLVGDNLNEGVKSWGWSR, -1.29 ± 0.45. In data set [1], NPSFNESFLSGSQKVQILMG registered an amyloid nucleation score of -0.509 ± 1.1. On the same count and under the same terms, to NSTFLCLVGFFCLVFSLRQG belongs 3.77 ± 0.1; to ALDSNSWPYDGGMWRTT, -0.232 ± 1.1; to LSVCVRHEDGGSIAVECGS, 0.242 ± 0.77. On the same count and under the same terms, to RNFDMPLLAYGMTWEQLMEF belongs 4.51 ± 0.058; to KRDPLFRVLGT, 0.071 ± 0.79. The same measure, in the same setting: to VLVCRFQSIFGILVVASCVK belongs -1.53 ± 0.55; to YVVSQTVRWF, “inactive”. For AAISVFCEVFK, in data set [2], the amyloid nucleation score entry was “inactive”.

As for FSGNGSSYYASSMNGDTVFL, the amyloid nucleation score result in data set [2] was “inactive”. As for VCLWTVDLRIVTEGLGSHRG, in data set [2], the amyloid nucleation score result was “inactive”.

In data set [2], ASMYIMFTTVNKILFIEISD returned an amyloid nucleation score of 1.69 ± 0.056. On the same count and under the same terms, under LSCDGNRGTVFVIRIFSGDV stands 2.62 ± 0.078; under VFPPEMRVFPLFCW, “inactive”.

As to WFCLRTTVTPLDGFVLWYWE, the amyloid nucleation score entry in data set [2] was “inactive”. The same measure, in the same setting: under EEPNG stands “inactive”; under TPKFLSMLIRTHSSPVRTHL, “inactive”.

As to IVQTLYNLAAVHSTWAIRFQ, the amyloid nucleation score in data set [2] is -0.142 ± 0.4. On to KSCHQSRFISDYRPAAPEDS, for which the amyloid nucleation score result in data set [2] is “inactive”.

Turning to AWTGGSLGLTNI, in data set [2], the amyloid nucleation score result is “inactive”.

In data set [2], ESFLFFMFIFASCTT came in with an amyloid nucleation score of 0.536 ± 0.33. On the same count and under the same terms, under NFFVKTNRHGNVTTFGGR stands “inactive”. As to ASYLCVFCDRAFQCGPYRYI, the amyloid nucleation score in data set [2] is 2.22 ± 0.092. Still for that read-out and setting: to MKRGDDLHTLFITSVPKSGY belongs “inactive”. In the case of QTCSNYLNTFRSRRDWLVKG, the amyloid nucleation score result in data set [2] is “inactive”. Still for that read-out and setting: to IPYRLVGMLTVVTCRTSKLC belongs “inactive”; to LLPKVLLP, “inactive”. Same read-out and setting: to EYSLTLPYFVGSALPPQNTC belongs “inactive”. VFMCLANYMFPIPGNRHVPP showed an amyloid nucleation score in data set [2] of 0.053 ± 0.75. The same measure, in the same setting: to SYNGYRSGLFGYGSTVSFIS belongs “inactive”. Consider NLEEHIRCFKGDRDPYLFF, for which the amyloid nucleation score result in data set [2] is “inactive”.

Turning to VIWGTPQFSFAEVREFDLVH, the amyloid nucleation score result in data set [2] is “inactive”. Still for that read-out and setting: to IVRRGLKMCG belongs “inactive”; to PVLGYAECIYKMYKSSQVSW, “inactive”; to VLNFIMAWYNFRFVWGSMGV, “inactive”.

Turning to SIESMCPVYILVVAPEMCR, the amyloid nucleation score result in data set [2] is “inactive”. Same read-out and setting: to FFIDQLKEFSHY belongs “inactive”; to SFVQLMFLFGT, 1.83 ± 0.076; to TPFSCEYNIMWESRGGDWSR, “inactive”.

In the case of LHSSNCCNEIVMRNRCWRKF, the amyloid nucleation score entry in data set [2] is “inactive”. Same read-out and setting: to LWLSDRNSLDSIAVCA belongs 1.24 ± 0.093; to AVIIDIHGINPMG, “inactive”; to GCGPLNFSVESHQCLKS, “inactive”. As to KGRMQVEWDFGISAYCGMML, in data set [2], the amyloid nucleation score is -0.431 ± 1.1. On the same count and under the same terms, to VMKPSNVVQGSMNPESSLGM belongs “inactive”. The same measure, in the same setting: under SSWYSRAPWLRVEMRRKWYM stands 0.025 ± 0.61; under FDGTVVSR, “inactive”; under VYWFKELADSITRCVKNYIY, “inactive”. With RTSFLGVID, in data set [2], the amyloid nucleation score entry was “inactive”. On the same count and under the same terms, under TNKRTYFWVF stands 1.02 ± 0.097; under YVLRCVFSSDNKDGAWTTWI, “inactive”; under SMLAFDLGGCAQTVTGWW, “inactive”. Same read-out and setting: under FLCVRSFRFVCVLFFNDIT stands “inactive”; under NFTRC, “inactive”. With SESSS, the amyloid nucleation score entry in data set [2] was “inactive”. On the same count and under the same terms, to EMRSFVGNSCI belongs -0.613 ± 1.5.

Regarding FTFRLVKNTTLNGIYFCIKR, the amyloid nucleation score in data set [2] was 0.787 ± 0.18. Still for that read-out and setting: under TPLGSQLALESDFFYTPNRC stands “inactive”.

The values are drawn from the supplement of paper PMC12042874.
